Patent US20180312587A1 (ADURO BIOTECH HOLDINGS EUROPE B V, published 2018)

Columns and labels:
[1] = biological target: T1, hSIRPα expressed on primary human cells (human, UniProt P78324 31-504); test: flow cytometry on CD14+ enriched monocytes, human donor 2; blocked ligand: DyLight 488-labeled recombinant hCD47/Fc
T1 construct: whole, on cells; also called hSIRPα on primary human CD14+ monocytes; on primary human granulocytes
Description: To assess the blocking ability of hSIRPα.40A, CD14+ enriched monocytes cells were seeded in 96-well round bottomed tissue culture plates and incubated for 45 minutes with FcR Blocking Reagent (Miltenyi Biotec) and hSIRPα.40A antibody (20 μg/mL and dilutions thereof) in PBS/1% BSA at 4° C. […] After this labeling procedure, cells were washed two times, resuspended in PBS/1% BSA containing 0.1 μg/mL DAPI (BioLegend), and analysed by flow cytometry on the FACSVerse (BD Biosciences). Data were processed and analysed with FlowJo V10 software (FlowJo, LLC). […] IC50 values represent the concentration at which half of the inhibition is observed.

[2] = biological target: T2, hSIRPαV8 (NA18570_V8) (human, UniProt P78324 31-504); test: CELISA, CHO-K1 transfectants; average of two experiments
T2 construct: also called human SIRPαV8
T2 sequence (P78324 other isoform, or with tags, fused parts or gaps limits assumed): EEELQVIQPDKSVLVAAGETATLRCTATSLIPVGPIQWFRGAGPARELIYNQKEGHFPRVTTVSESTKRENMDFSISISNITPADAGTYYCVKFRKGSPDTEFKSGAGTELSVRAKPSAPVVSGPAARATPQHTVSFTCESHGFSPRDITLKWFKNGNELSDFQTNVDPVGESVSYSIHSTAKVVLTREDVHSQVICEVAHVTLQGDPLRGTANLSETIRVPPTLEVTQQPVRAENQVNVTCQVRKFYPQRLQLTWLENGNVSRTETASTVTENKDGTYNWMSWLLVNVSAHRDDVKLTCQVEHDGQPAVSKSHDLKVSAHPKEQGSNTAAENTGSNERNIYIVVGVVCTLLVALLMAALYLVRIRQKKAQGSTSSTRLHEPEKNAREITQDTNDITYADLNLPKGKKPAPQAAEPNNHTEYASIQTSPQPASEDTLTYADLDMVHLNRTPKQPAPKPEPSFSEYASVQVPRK
Description: The binding specificity of antibody hSIRPα.50A to hSIRPα was compared antibody KWAR23 (Canadian Patent 2939293 A1), in a CELISA format. CHO-K1 cells were transiently transfected with hSIRPαV1, hSIRPαV2, hSIRPβ1, and hSIRPγ (GenBank accession: NM_018556.3) (SEQ ID NO: 39) cDNAs. Subsequently, hSIRPα binding was assessed by CELISA using CHO-K1.hSIRPαV1, CHO-K1.hSIRPαV2, CHO-K1.hSIRPβ1, and CHO-K1.hSIRPγ cells. Detection of bound antibody was performed with goat-anti-mouse IgG-HRP (Southern Biotech) for mouse antibodies including hSIRPα.50A and control antibodies or, alternatively, with goat-anti-human IgG-HRP conjugate (Jackson Immuno Research) for the KWAR23 antibody. KWAR23 (SEQ ID NO: 130; SEQ ID NO: 131) was expressed as a chimeric human IgG4 kappa antibody in CHO cells. As shown in FIG. 2 and the following Table 9, KWAR23 antibody cross-reacts with all members of the SIRP receptor family tested: it binds to hSIRPαV1, hSIRPαV2, hSIRPβ1, and hSIRPγ.
In addition, the specificity of hSIRPα.50A for all known of hSIRPα alleles (allelic variants as described by Takenaka et al., 2007, Nat Immunol. 8:1313-1323) was further investigated by CELISA using the same strategy as above. To this end, hSIRPα.50A binding was assessed using CHO-K1 cells that were transiently transfected with cDNAs encoding full length hSIRPαV1, hSIRPαV2, hSIRPαV3 (NA07056_V3) (SEQ ID NO: 43), hSIRPαV4 (NA11832_V4) (SEQ ID NO: 45), hSIRPαV5 (NA18502_V5) (SEQ ID NO: 47), hSIRPαV6 (NA18507_V6) (SEQ ID NO: 49), hSIRPαV8 (NA18570_V8) (SEQ ID NO: 51), and hSIRPαV9 (NA18943_V9) (SEQ ID NO: 53).

[3] = biological target: T3, human SIRPα variant 1 (human, UniProt P78324 31-504); test: flow cytometry, blockade of DyLight488-hCD47/Fc binding to U-937 cells
T3 construct: full length ORF on transfected CHO-K1 or HEK293 cells; entry includes the signal peptide; also called hSIRPαV1; SIRPαV1
T3 sequence (P78324 31-504 limits assumed, change not shown): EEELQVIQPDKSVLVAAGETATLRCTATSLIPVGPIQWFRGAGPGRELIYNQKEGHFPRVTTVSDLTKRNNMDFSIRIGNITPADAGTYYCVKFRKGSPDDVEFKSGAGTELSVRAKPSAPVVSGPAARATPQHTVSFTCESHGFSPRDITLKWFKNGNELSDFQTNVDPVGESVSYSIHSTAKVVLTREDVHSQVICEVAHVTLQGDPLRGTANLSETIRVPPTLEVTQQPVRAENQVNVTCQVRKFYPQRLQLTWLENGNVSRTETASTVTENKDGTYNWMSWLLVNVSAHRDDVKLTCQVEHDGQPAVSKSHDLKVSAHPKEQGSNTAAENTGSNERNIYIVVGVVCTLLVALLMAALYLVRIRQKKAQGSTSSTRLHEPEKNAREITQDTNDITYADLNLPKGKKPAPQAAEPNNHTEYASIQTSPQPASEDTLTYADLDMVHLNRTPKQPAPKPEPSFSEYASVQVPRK
Description: For this purpose, THP-1 (ATCC TIB-202) and U-937 (ATCC CRL-1593.2) monocyte cell lines were used as the source of hSIRPα in the assay. THP-1 and U-937 cells were seeded in 96-well round bottomed tissue culture plates and incubated for 45 minutes with FcR Blocking Reagent (Miltenyi Biotec) and hSIRPα.50A antibody (200 μg/mL and dilutions thereof) in PBS/1% BSA at 4° C. […] After this labeling procedure, cells were washed two times, resuspended in PBS/1% BSA containing 0.1 μg/mL DAPI (BioLegend), and analysed by flow cytometry on the FACSCanto II (BD Biosciences). Data were processed and analysed with FlowJo V10 software (FlowJo, LLC).
As depicted in FIG. 4 and the following Table 11, binding of recombinant hCD47 fused to an Fc domain of human IgG1 was monitored in the presence of increasing amounts of the hSIRPα.50A antibody. Antibody hSIRPα.50A blocked the hSIRPα/hCD47 interaction, using the flow cytometry-based method described above. […] IC50 values represent the concentration at which half of the inhibition is observed.

[4] = biological target: T1, hSIRPα expressed on primary human cells; test: flow cytometry on primary human granulocytes, FITC goat-anti-mouse Ig
Description: To confirm the functionality of hSIRPα.50A in primary immune cells, granulocytes (e.g. effector cells) were isolated from healthy human donor EDTA blood. First, the EDTA blood of each donor was pooled and centrifuged at 300 g for 6 minutes at 20° C. Next, plasma was removed by aspiration, and the remaining blood cells were gently resuspended. Cells were recovered in red blood cell (RBC) lysis buffer (155 mM NH4Cl; 10 mM KHCO3) and incubated for 10 minutes on ice. Next, cells were centrifuged at 300 g for 7 minutes. Supernatants containing lysed RBCs were removed by aspiration, and the remaining blood cells were gently resuspended in RBC lysis buffer and kept on ice for 1 minute. […] The percentage of granulocytes present in the cell suspension was determined by flow cytometry on the FACSCanto II (BD Biosciences) based on high forward scatter (FSC) and side scatter (SSC). Binding of hSIRPα.50A to human granulocytes was assessed by incubating the cells for 30 minutes at 4° C. with hSIRPα.50A antibody (25 μg/mL and dilutions thereof) in PBS/1% BSA containing 10% autologous serum (PBS/1% BSA/10% serum). […] After this labeling procedure, cells were washed two times, resuspended in PBS/1% BSA/10% serum and analysed by flow cytometry on the FACSCanto II (BD Biosciences). Data were processed and analysed with FlowJo V10 software (FlowJo, LLC).

T1 sequence (P78324 31-504): as the sequence (P78324 31-504 limits assumed, change not shown) above

Row | Binder | IC50 (read off the curve) [1] [nM] | EC50 [2] [nM] | IC50 [3] [nM] | EC50 (read off the curve) [4] [nM]
1 | hSIRPα.40A (antibody, mouse IgG1, kappa, V domains shown, mouse antibody, full chains without signal peptide; also called mouse hSIRPα.40A) VH: EVQFQQSGTVLARPGTSVKMSCKASGSTFTSYWMHWVKQGPGQGLQWIGAIYPVNNDTTYNQKFKGKAELTVVTSTSTAYMEVSSLTNEDSAVYYCTRSFYYSLDAAWFVYWGQGTLVTVSA VL: DIQMTQSPSSLSASLGERVSLTCRASQDIGSRLNWLQQEPDGTIKRLIYATSSLDSGVPKRFSGSRSGSDYSLTISGLESEDFVDYYCLQYASSPFTFGGGTKLEINR | ~0.5 | – | – | –
2 | hSIRPα.50A (antibody, V domains shown, light chain constant domain not tied; also called mouse hSIRPα.50A; hSIRPα.50A.mIgG1) VH: QVQLQQSGPELVKPGASVRISCKASGFTFTNYYIHWVKQRPGQGLEWIGWIYPGNVNTKYNEKFKAKATLTADKSSTTAYMQLSSLASEDSAVYFCARPTIIATDFDVWGAGTTVTVSS VL: DIVMTQSHKFMSTSVGDRVNITCKASQGVGTAVGWYQQKPGQSPRLLIYWASTRHTGVPDRFTGSGSGTDFSLAISNVQSEDLADYFCQQYSTYPFTFGGGTNLEIK | – | 0.644 | 7.16 | ~3
